From paper PMC7299998, “Recombinant Bri3 BRICHOS domain is a molecular chaperone with effect against amyloid formation and non-fibrillar protein aggregation” (Scientific Reports, 2020)
Blank lines part the entries; values can stand above or below the binder they belong to.

Legend:
[1] = biological target: the molecule itself; test: negative-stain transmission electron microscopy; oligomers isolated by SEC (Superose 6, 20 mM ammonium acetate pH 8.0), uranyl acetate stain, reference-free 2D classification, Feret's diameters
[2] = biological target: the molecule itself; test: SEC; rh BRICHOS alone on Superose 6 10/300 GL, 0.5 ml/min, 20 mM PB, 0.2 mM EDTA pH 8.0 or 20 mM ammonium acetate pH 8.0; hydrodynamic diameter by comparison with standards
[3] = biological target: T1, citrate synthase (CS) from porcine heart (porcine, UniProt P00889 28-464); test: SEC; supernatant of CS:rh Bri3 BRICHOS 1:2 molar ratio after 2 h at 45 °C and centrifugation; Superose 6, 20 mM ammonium acetate pH 8.0, 0.7 ml/min; peak fractions by reducing SDS-PAGE; conditions: both partners purified
T1 construct: citrate synthase, mitochondrial, from porcine heart; Used native (fresh) or partly heat-denatured (2 h at 45 °C); the assays tell the two states apart; source: bought: Sigma-Aldrich (from porcine heart)
T1 sequence (looked up): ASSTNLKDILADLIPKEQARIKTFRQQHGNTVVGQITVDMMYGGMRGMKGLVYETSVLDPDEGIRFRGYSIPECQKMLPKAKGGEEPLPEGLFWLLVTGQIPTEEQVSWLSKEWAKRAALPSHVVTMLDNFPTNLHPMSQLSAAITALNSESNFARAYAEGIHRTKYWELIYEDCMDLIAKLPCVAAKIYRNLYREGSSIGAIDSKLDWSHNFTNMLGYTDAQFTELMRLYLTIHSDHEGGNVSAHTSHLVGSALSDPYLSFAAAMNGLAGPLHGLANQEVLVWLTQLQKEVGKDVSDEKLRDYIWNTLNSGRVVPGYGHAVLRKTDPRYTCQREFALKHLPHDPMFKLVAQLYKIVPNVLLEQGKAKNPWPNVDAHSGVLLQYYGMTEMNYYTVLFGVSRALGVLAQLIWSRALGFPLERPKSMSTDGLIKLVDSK

B1: recombinant human (rh) Bri2 BRICHOS domain (domain or fragment, UniProt Q9Y287 90-236, looked up)
chain: GIKYIKDDVILNEPSADAPAALYQTIEENIKIFEEEEVEFISVPVPEFADSDPANIVHDFNKKLTAYLDLNLDKCYVIPLNTSIVMPPRNLLELLINIKAGTYLPQSYLIHEHMVITDRIENIDHLGFFIYRLCHDKETYKLQRRET
notes: Bri2 (ITM2B), human, residues 90-236 (linker part and BRICHOS domain); The modelled and aligned Bri2 BRICHOS is 113-231; the expressed construct is 90-236; Vector pET-32c(+); also called Bri2(90-236); source: E. coli Shuffle T7, purified (Ni-Sepharose from 2 M urea extract, thrombin cleavage, second Ni-Sepharose); not shown: Trx, N-terminal, cleaved; His6, N-terminal, cleaved; S tag, N-terminal, …
- binding result [1]: binds

- binding result [3]: binds
B2: recombinant human (rh) Bri3 BRICHOS domain (domain or fragment, UniProt Q9NQX7 112-230, looked up)
chain: MELEEDVKIYLDENYERINVPVPQFGGGDPADIIHDFQRGLTAYHDISLDKCYVIELNTTIVLPPRNFWELLMNVKRGTYLPQTYIIQEEMVVTEHVSDKEALGSFIYHLCNGKDTYRL
notes: Bri3, human, residues 112-230 (BRICHOS domain); Bri3 is a 267-residue protein; Mainly high molecular weight oligomers, partly held by disulfide bonds; Calculated monomer mass 17.3 kDa with the S tag; Vector pET-32c(+); also called Bri3(112-230); rh (S-tag) Bri3 BRICHOS; source: E. coli Shuffle T7, purified (Ni-Sepharose from 2 M urea extract, thrombin cleavage, second Ni-Sepharose); not shown: …
- binding result [2]: binds
